As a reminder, the EC50 (read off the curve) is the concentration needed to bring the measured effect to its halfway point. The Kd is a measure of binding affinity in units of concentration. One may read the koff as a measure of how fast the partners let go of each other. One may read the kon as the rate constant with which the complex forms.

The values that follow come from patent publication US20240254205A1 (UNIVERSITY OF ROCHESTER, published 2024).

Assay [1] concerns the target T1, NA of B/Lee/1940 on infected MDCK cells (influenza B virus B/Lee/1940, UniProt P03474 1-466).
T1 construct: whole, on cells
Kind of assay: immunofluorescence (IFA) on infected MDCK cells.

For assay [2], the target named is T2, recombinant IBV NA protein B/Hong Kong/330/2001 (Victoria lineage) (influenza B virus B/Hong Kong/330/2001).
In assay [3] the target is T2, recombinant IBV NA protein B/Hong …. Kind of assay: avidity ELISA with urea, hMAb at 1 µg/ml. On the technique in general: In an ELISA, binding on a coated surface is turned into a signal by an enzyme label.
In assay [4] the target is T1, NA of B/Lee/1940 on infected MDCK cells. In words: immunofluorescence on infected MDCK cells, hMAb at 1 µg/ml.
The target of assay [5] is T2, recombinant IBV NA protein B/Hong …. The source holds these as a separate data set.
Assay [6] has the same target. In words: surface plasmon resonance, antibody on the chip, NA flowed over. On the technique in general: Surface plasmon resonance follows binding to a sensor surface in real time, without labels.

Where two headings read alike, the source gives them in different places.

B1: 1122C6 (antibody, V domains shown)
VH: QVQLQESGPGLVKPSETLSLTCTVSGGSISSYYWSWIRQPPGKAVEWIGYIFDGGSTDYNPSLKSRVAMSVDASENQFSLKLASVTAADTAVYYCARYRVSGNYYDTPWFDPWGQGLLVTVSS
VL: SYELTQPPSLSASPGQTARITCSGDALPKQDVYWYQQKPGQAPLLVIYKDTERPSGIPERFSGSRSGTTVTLIISGVQAEDEADYYCQSAASSYGYVVFGGGTKLTVL
In the case of B1, in assay [1], the binding result is recorded as “no binding (tested: 1 µg/ml)”.

B2: 1086C12 (antibody, V domains shown)
VH: VQLVESGGGVVQPGRSLRLSCVASGFSLSTYGMLWVRQAPGKGLVWVALISYEEGSNKKYADSVKGRFTISRDNSRNTLYLQMSSLTSDDTGVYYCARDAGCDSVGYYPGRLWGQGTLVTVSS
VL: QSVLTQPPSASGTPGQTVTISCSGTSSNIGSNFVYWYQQLPGTAPKLLIFRNNQRPSGVPDRFSGSKSGTSASLAVSGLRSEDEAEYYCAAWDDSLSGHLVFGGGTKLTVL
Consider B2, for which, in assay [2], the “EC50 (read off the curve)” value is around 0.05 µg/mL. In assay [3], the “binding activity maintained in 8 M urea” value was above 75%. Further, the binding result in assay [4] is recorded as “binds”.

B3: KPF2/1092D4 (antibody, V domains shown)
VH: EVQLLESGGQLVQPGGSLRLSCAVSGFTFSRYAMYWVRQAPGKGLEWVSIISGDGGVTFYADSVKGRFTISRDNSKNTLFLQMNSLRADDTAVYYCAKDNQDLDLWSGSYKGTFDDWGQGTLVTVSS
VL: NFMLTQPHSVSGSPGKTVSISCTRSSGIIASNHVQWYQQRPGSAPTTVIFEDNQRPSGVPDRFSGSIDSSSNSASLTISGLKTEDEADYYCQSYDSSRYWVFGGGTKLTVL
In the case of B3, in assay [5], the dissociation constant (Kd) came to 0.185 nM, the koff was 4.86e-05 s⁻¹ and the kon came to 264000 M⁻¹ s⁻¹. In assay [2], the “EC50 (read off the curve)” value is around 0.05 µg/mL. In assay [3], the “binding activity maintained in 8 M urea” value was above 75%. The binding result in assay [4] is on record as “binds”. For the same molecule, the Kd in assay [6] was 0.1 nM.

B4: 1122C7 (antibody, V domains shown)
VH: EVQLLESGGQLVQPGGSLRLSCAVSGFTFSSYAMYWVRQSPGKGLEWVSIISGDGGVTFYADSVKGRFTISRDNSKNTLYLQMNSLRAEDTAVYYCAKDKQDLDLWSGSYKGTFDEWGQGTLVTVSS
VL: NFMLTQPHSVSGSPGKTVSISCTRSSGIIASNYVQWYQQRPGSAPTTVIFEDNQRPSGVPDRFSGSIDSSSNSASLTISGLKTEDEADYYCQSYDSSRYWVFGGGTKLTVL
For the molecule B4, in assay [3], the “binding activity maintained in 8 M urea” value was above 75%. The binding result in assay [4] is listed as “binds”.

B5: 1092E10 (antibody, V domains shown)
VH: EVQLVESGGGSVKPGGSLRLSCAASGFTFTNSWMSWVRQAPGKGLEWVGRIKSKSDGGTTDYAAPVKGRFSISRDDSKSTLFLQMNSLKTEDTAVYYCSAAPFTESNGYKSWDYLYGMDVWGQGTTVTVSS
VL: SYELTQPPSVSVSPGQTATITCSGDKLGDKFASWYQQQPGQSPVLVIYQHTKRPSGIPERFSGSISGSTATLTISGTQAVDEADYYCQAWDSNSYVFGAGTKVTVL
notes: also called 1092E01
Consider B5, for which the “EC50 (read off the curve)” value in assay [2] was around 0.05 µg/mL. Also, in assay [3], the “binding activity maintained in 8 M urea” value is above 75%. The binding result in assay [4] is on record as “binds”.
